# Data reported in FireProtDB (doi:10.1021/bi0015717).
# “And” between values parts separate entries of the source, which are not always exact repeats. Equal entries are not always repeated.
# B1: Lysozyme C, P61626 (parent)
# chain: MKALIVLGLVLLSVTVQGKVFERCELARTLKRLGMDGYRGISLANWMCLAKWESGYNTRATNYNAGDRSTDYGIFQINSRYWCNDGKTPGAVNACHLSCSALLQDNIADAVACAKRVVRDPQGIRAWVAWRNRCQNRDVRQYVQGCGV
# Variants of: B1
# Conditions: Homo sapiens; pH 2.5; Thermal; DSC; glycine-HCl 0.05 M; reversible: yes; structure 1LZ1; whole UniProt chain shown
Variant,Tm [°C],unfolding enthalpy (calorimetric) [kcal/mol]
V92M,63.4,107
V92L,62.4,100
V20I,65.1,108

# Same assay, conditions: Homo sapiens; pH 2.7; 64.9 °C; Thermal; DSC; glycine-HCl 0.05 M; reversible: yes; structure 1LZ1; whole UniProt chain shown
row,Variant,ddG of mutation (higher = less stable) [kcal/mol]
1,V92M,-0.65
2,V92L,-0.19
3,V92F,0.29
4,V92G,0.22
5,V92I,-0.45
6,V20I,-1.1
7,V20L,0.05
8,V20G,2.29

# Same assay, conditions: Homo sapiens; pH 2.7; Thermal; DSC; glycine-HCl 0.05 M; reversible: yes; structure 1LZ1; whole UniProt chain shown
Variant,Tm,"change of melting temperature, mutant - wild type (higher = more stable) [°C]",heat capacity change of unfolding [kcal/mol/K],unfolding enthalpy (calorimetric)
V92M,66.9 °C and 64.9 °C,2,1.58,113 kcal/mol and 109 kcal/mol
V92L,65.3 °C and 65.5 °C and 64.9 °C,0.6,1.27,104 kcal/mol and 103 kcal/mol
V92F,64 °C and 64.9 °C,-0.9,1.34,110 kcal/mol
V92G,64.9 °C,–,–,–
V92I,66.6 °C and 64.9 °C,1.7,1.2,88.4 kcal/mol
V20I,68 °C and 68.3 °C and 64.9 °C,3.4,1.58,114 kcal/mol and 108 kcal/mol
V20L,64.5 °C and 64.7 °C and 64.9 °C,-0.2,1.22,109 kcal/mol
V20G,–,-7.5,1.31,107 kcal/mol

# Same assay, conditions: Homo sapiens; pH 2.83; Thermal; DSC; glycine-HCl 0.05 M; reversible: yes; structure 1LZ1; whole UniProt chain shown
Variant,Tm [°C],unfolding enthalpy (calorimetric) [kcal/mol]
V92M,69.4,117
V92L,67.5,107
V20G,59.5,99.7

# Same assay, conditions: Homo sapiens; pH 3.1; Thermal; DSC; glycine-HCl 0.05 M; reversible: yes; structure 1LZ1; whole UniProt chain shown
Variant,Tm [°C],unfolding enthalpy (calorimetric) [kcal/mol]
V92M,73.2,123
V92F,70.5,117

# Same assay, conditions: Homo sapiens; pH 3.2; Thermal; DSC; glycine-HCl 0.05 M; reversible: yes; structure 1LZ1; whole UniProt chain shown
Variant,Tm [°C],unfolding enthalpy (calorimetric) [kcal/mol]
V92M,75,125

# Same assay, conditions: Homo sapiens; pH 3.05; Thermal; DSC; glycine-HCl 0.05 M; reversible: yes; structure 1LZ1; whole UniProt chain shown
Variant,Tm [°C],unfolding enthalpy (calorimetric) [kcal/mol]
V92L,71.6,112
V20L,70.4,116

# Same assay, conditions: Homo sapiens; pH 3.15; Thermal; DSC; glycine-HCl 0.05 M; reversible: yes; structure 1LZ1; whole UniProt chain shown
Variant,Tm [°C],unfolding enthalpy (calorimetric) [kcal/mol]
V92L,73.3,114

# Same assay, conditions: Homo sapiens; pH 2.68; Thermal; DSC; glycine-HCl 0.05 M; reversible: yes; structure 1LZ1; whole UniProt chain shown
Variant,Tm [°C],unfolding enthalpy (calorimetric) [kcal/mol]
V92F,63.6,108

# Same assay, conditions: Homo sapiens; pH 2.84; Thermal; DSC; glycine-HCl 0.05 M; reversible: yes; structure 1LZ1; whole UniProt chain shown
Variant,Tm [°C],unfolding enthalpy (calorimetric) [kcal/mol]
V92F,66.3,112

# Same assay, conditions: Homo sapiens; pH 3.23; Thermal; DSC; glycine-HCl 0.05 M; reversible: yes; structure 1LZ1; whole UniProt chain shown
Variant,Tm [°C],unfolding enthalpy (calorimetric) [kcal/mol]
V92F,72.4,120

# Same assay, conditions: Homo sapiens; pH 3.4; Thermal; DSC; glycine-HCl 0.05 M; reversible: yes; structure 1LZ1; whole UniProt chain shown
Variant,Tm [°C],unfolding enthalpy (calorimetric) [kcal/mol]
V92F,75.6,124
V20G,69,112

# Same assay, conditions: Homo sapiens; pH 2.53; Thermal; DSC; glycine-HCl 0.05 M; reversible: yes; structure 1LZ1; whole UniProt chain shown
Variant,Tm [°C],unfolding enthalpy (calorimetric) [kcal/mol]
V92G,61.3,108

# Same assay, conditions: Homo sapiens; pH 2.95; Thermal; DSC; glycine-HCl 0.05 M; reversible: yes; structure 1LZ1; whole UniProt chain shown
Variant,Tm [°C],unfolding enthalpy (calorimetric) [kcal/mol]
V92G,68.7,121

# Same assay, conditions: Homo sapiens; pH 3.09; Thermal; DSC; glycine-HCl 0.05 M; reversible: yes; structure 1LZ1; whole UniProt chain shown
Variant,Tm [°C],unfolding enthalpy (calorimetric) [kcal/mol]
V92G,70.8,124

# Same assay, conditions: Homo sapiens; pH 3.3; Thermal; DSC; glycine-HCl 0.05 M; reversible: yes; structure 1LZ1; whole UniProt chain shown
Variant,Tm [°C],unfolding enthalpy (calorimetric) [kcal/mol]
V92G,74,129

# Same assay, conditions: Homo sapiens; pH 2.67; Thermal; DSC; glycine-HCl 0.05 M; reversible: yes; structure 1LZ1; whole UniProt chain shown
Variant,Tm [°C],unfolding enthalpy (calorimetric) [kcal/mol]
V92I,66.1,89.9

# Same assay, conditions: Homo sapiens; pH 2.8; Thermal; DSC; glycine-HCl 0.05 M; reversible: yes; structure 1LZ1; whole UniProt chain shown
Variant,Tm [°C],unfolding enthalpy (calorimetric) [kcal/mol]
V92I,68.3,92.5

# Same assay, conditions: Homo sapiens; pH 3; Thermal; DSC; glycine-HCl 0.05 M; reversible: yes; structure 1LZ1; whole UniProt chain shown
Variant,Tm [°C],unfolding enthalpy (calorimetric) [kcal/mol]
V92I,71.7,96.6

# Same assay, conditions: Homo sapiens; pH 2.92; Thermal; DSC; glycine-HCl 0.05 M; reversible: yes; structure 1LZ1; whole UniProt chain shown
Variant,Tm [°C],unfolding enthalpy (calorimetric) [kcal/mol]
V20I,72.2,119

# Same assay, conditions: Homo sapiens; pH 3.13; Thermal; DSC; glycine-HCl 0.05 M; reversible: yes; structure 1LZ1; whole UniProt chain shown
Variant,Tm [°C],unfolding enthalpy (calorimetric) [kcal/mol]
V20I,75.5,125

# Same assay, conditions: Homo sapiens; pH 2.65; Thermal; DSC; glycine-HCl 0.05 M; reversible: yes; structure 1LZ1; whole UniProt chain shown
Variant,Tm [°C],unfolding enthalpy (calorimetric) [kcal/mol]
V20G,56.6,95.6

# Same assay, conditions: Homo sapiens; pH 3.08; Thermal; DSC; glycine-HCl 0.05 M; reversible: yes; structure 1LZ1; whole UniProt chain shown
Variant,Tm [°C],unfolding enthalpy (calorimetric) [kcal/mol]
V20G,63.8,105

# Same assay, conditions: Homo sapiens; pH 3.19; Thermal; DSC; glycine-HCl 0.05 M; reversible: yes; structure 1LZ1; whole UniProt chain shown
Variant,Tm [°C],unfolding enthalpy (calorimetric) [kcal/mol]
V20G,65.7,108
